Measurements published in patent publication US20260193326A1 (published 2026).
Substitutions are numbered along the chain they refer to.

Experiments:
Test in all cases: SPR, AAV on CM5 chip;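 further: surface plasmon resonance with AAV amine-coupled to the chip as ligand, nanobodies injected as analyte over a concentration series, rate constants and affinity fitted from binding curves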
AAV8 = target: T1, AAV8
T1 construct: also called adeno-associated virus serotype 8
Experimental: (§1) AAV was amine-coupled to a CM5 sensor chip at a density of 500-800 response units (RU). Nanobodies were injected at seven concentrations (1-100 nM) with a flow rate of 45 μL/min, and chip regeneration was performed using glycine-HCl (pH 1.5). Binding curves at different nanobody concentrations were used to calculate kinetic parameters (Kₐ, Kd, KD) (Table 2 and FIG. 2).

AAV9 = target: T2, AAV9
T2 construct: also called adeno-associated virus serotype 9
Experimental: as §1

AAV5 = target: T3, AAV5
T3 construct: also called adeno-associated virus serotype 5
Experimental: as §1

B1: A4-009 (VHH)
VHH: VQLQESGGGLAQPGGSLRLSCAASGSRFSINTMGWYRQAPGKQREFVAAVTRGGSTNYAGSVKGRFTISRDNAKNTVYLQMNTLRPEDTAVYYCHVDEVRQSSWTTSNIWGQGTQVTVSS
Kd (AAV8): 103 nM
koff (AAV8): 0.00219 s⁻¹
kon (AAV8): 21400 M⁻¹ s⁻¹
Kd (AAV9): 100 nM
koff (AAV9): 0.0139 s⁻¹
kon (AAV9): 139000 M⁻¹ s⁻¹
Kd (AAV5): 141 nM
koff (AAV5): 0.00698 s⁻¹
kon (AAV5): 49700 M⁻¹ s⁻¹

B2: A4-027 (VHH)
VHH: B1 VHH with A11V, R27N, F46L, V50L, G60D, T83S, Q101E, I109L
Kd (AAV8): 105 nM
koff (AAV8): 0.00085 s⁻¹
kon (AAV8): 8100 M⁻¹ s⁻¹
Kd (AAV9): 208 nM
koff (AAV9): 0.00085 s⁻¹
kon (AAV9): 4090 M⁻¹ s⁻¹
Kd (AAV5): 236 nM
koff (AAV5): 0.00194 s⁻¹
kon (AAV5): 8220 M⁻¹ s⁻¹

B3: A4-022 (VHH)
VHH: VQLQESGGGLVQPGGSLRLSCAASGSGFSINTMGWYRQAPGKQRELVATVTRDGSTNYADFVKGRFTISRDNAKNTVYLQMNSLRPEDTAVYYCHLDEVRESSWTTSNLWGQGTQVTVSS
Kd (AAV8): 1.19 nM
koff (AAV8): 6.2e-05 s⁻¹
kon (AAV8): 52100 M⁻¹ s⁻¹
Kd (AAV9): 28.5 nM
koff (AAV9): 0.0001 s⁻¹
kon (AAV9): 3510 M⁻¹ s⁻¹
Kd (AAV5): 9.61 nM
koff (AAV5): 0.00152 s⁻¹
kon (AAV5): 158000 M⁻¹ s⁻¹

B4: A4-041 (VHH)
VHH: B3 VHH with S26R, D53G, D60N, F61S, L96V, V99L, E101Q
Kd (AAV8): 1980 nM
koff (AAV8): 0.00245 s⁻¹
kon (AAV8): 1240 M⁻¹ s⁻¹
Kd (AAV9): 8.15 nM
koff (AAV9): 0.00142 s⁻¹
kon (AAV9): 174000 M⁻¹ s⁻¹
Kd (AAV5): 45.9 nM
koff (AAV5): 0.00616 s⁻¹
kon (AAV5): 134000 M⁻¹ s⁻¹

B5: A4-010 (VHH)
VHH: B3 VHH with P13A, G27I, T32S, D53G, S55N, F61S, L96V
Kd (AAV8): 169 nM
koff (AAV8): 0.00249 s⁻¹
kon (AAV8): 14700 M⁻¹ s⁻¹
Kd (AAV9): 380 nM
koff (AAV9): 0.0329 s⁻¹
kon (AAV9): 86600 M⁻¹ s⁻¹
Kd (AAV5): 267 nM
koff (AAV5): 0.00038 s⁻¹
kon (AAV5): 1420 M⁻¹ s⁻¹

B6: A4-023 (VHH)
VHH: B3 VHH with G27A, T49S, R52P, D53G, F61S, V77I
Kd (AAV8): 143 nM
koff (AAV8): 0.00125 s⁻¹
kon (AAV8): 8730 M⁻¹ s⁻¹
Kd (AAV9): 2.88 nM
koff (AAV9): 0.00056 s⁻¹
kon (AAV9): 195000 M⁻¹ s⁻¹
Kd (AAV5): 12.4 nM
koff (AAV5): 0.00126 s⁻¹
kon (AAV5): 102000 M⁻¹ s⁻¹

B7: A4-020 (VHH)
VHH: B3 VHH with P13A, G27T, V50I, D53G, S55N, F61S, L96V, E101Q
Kd (AAV8): 0.506 nM
koff (AAV8): 5.66e-05 s⁻¹
kon (AAV8): 112000 M⁻¹ s⁻¹
Kd (AAV9): 73.7 nM
koff (AAV9): 0.00169 s⁻¹
kon (AAV9): 23000 M⁻¹ s⁻¹
Kd (AAV5): 169 nM
koff (AAV5): 0.00094 s⁻¹
kon (AAV5): 5550 M⁻¹ s⁻¹

B8: A4-018 (VHH)
VHH: B1 VHH with A11V, P13A, A49T, S55N, G60E, T83S, Q101D
Kd (AAV8): 34.9 nM
koff (AAV8): 0.00392 s⁻¹
kon (AAV8): 112000 M⁻¹ s⁻¹
Kd (AAV9): 62.1 nM
koff (AAV9): 0.00745 s⁻¹
kon (AAV9): 120000 M⁻¹ s⁻¹
Kd (AAV5): 0.962 nM
koff (AAV5): 0.00014 s⁻¹
kon (AAV5): 146000 M⁻¹ s⁻¹

B9: A4-036 (VHH)
VHH: B1 VHH with P13A, S26R, R27G, F46L, S55T, G60D, T83S, I109L
Kd (AAV8): 336 nM
koff (AAV8): 0.00225 s⁻¹
kon (AAV8): 6700 M⁻¹ s⁻¹
Kd (AAV9): 1620 nM
koff (AAV9): 0.00944 s⁻¹
kon (AAV9): 5810 M⁻¹ s⁻¹
Kd (AAV5): 810 nM
koff (AAV5): 0.00621 s⁻¹
kon (AAV5): 7670 M⁻¹ s⁻¹

B10: A4-031 (VHH)
VHH: B3 VHH with R52S, D53A, D60G, F61S, L96V, V99I, E101Q
Kd (AAV8): 182 nM
koff (AAV8): 0.00923 s⁻¹
kon (AAV8): 50700 M⁻¹ s⁻¹
Kd (AAV9): 2240 nM
koff (AAV9): 0.00824 s⁻¹
kon (AAV9): 3690 M⁻¹ s⁻¹
Kd (AAV5): 41.9 nM
koff (AAV5): 0.00624 s⁻¹
kon (AAV5): 149000 M⁻¹ s⁻¹

B11: A4-030 (VHH)
VHH: B1 VHH with A11V, R27S, S29T, F46L, V77I, T83S, V99I, I109L
Kd (AAV8): 43.7 nM
koff (AAV8): 0.00034 s⁻¹
kon (AAV8): 7780 M⁻¹ s⁻¹
Kd (AAV9): 27.2 nM
koff (AAV9): 0.00025 s⁻¹
kon (AAV9): 9200 M⁻¹ s⁻¹
Kd (AAV5): 84.4 nM
koff (AAV5): 0.00028 s⁻¹
kon (AAV5): 3320 M⁻¹ s⁻¹

B12: A4-029 (VHH)
VHH: B3 VHH with G27N, A39R, P40A, D53G, F61S, L96I, V99I
Kd (AAV8): 0.486 nM
koff (AAV8): 4e-05 s⁻¹
kon (AAV8): 82300 M⁻¹ s⁻¹
Kd (AAV9): 14.6 nM
koff (AAV9): 0.00141 s⁻¹
kon (AAV9): 96900 M⁻¹ s⁻¹
Kd (AAV5): 92.8 nM
koff (AAV5): 0.00155 s⁻¹
kon (AAV5): 16700 M⁻¹ s⁻¹

B13: A4-033 (VHH)
VHH: B3 VHH with A22V, G27S, Q38R, D60N, F61S, L96V, E101Q
Kd (AAV8): 89.2 nM
koff (AAV8): 0.00034 s⁻¹
kon (AAV8): 3810 M⁻¹ s⁻¹
Kd (AAV9): 199 nM
koff (AAV9): 0.00045 s⁻¹
kon (AAV9): 2270 M⁻¹ s⁻¹
Kd (AAV5): 243 nM
koff (AAV5): 0.002 s⁻¹
kon (AAV5): 8220 M⁻¹ s⁻¹
